# Test results as given in patent US20160040196A1, “ENZYMATIC CONVERSION OF BOTH ENANTIOMERS OF 1,2-PROPANEDIOL TO PROPIONALDEHYDE” (University of Georgia Research Foundation, Inc., priority 2014, published 2016).
# How the values were obtained:
# [1] = system: RiDD; assay: Hydrogen-driven conversion in a cell-free reactor (proof of concept, FIG. 2); type: biochemical, Roseburia inulinivorans; details: 10% (v/v) 1,2-propanediol, 1 atm hydrogen
# Procedure: In the simplest embodiment the “cell free reactor” would include only “catalytic” amounts of the enzymes described herein. Specifically, a catalytic amount is one molecule and anything greater than one enzyme molecule. In the data shown in FIG. 2 of this disclosure the cell free reactor includes the following; 10 μM of RiDD, 100 μM yeast alcohol dehydrogenase (YADH), and 200 μM of the soluble hydrogenase from Ralstonia metallidurans (formally Alcaligenes eutrophus). The reaction was carried out under strictly anaerobic conditions (oxygen-free argon gas) and initiated by the addition of the reduced RiDD-AE (50 μM final) and S-adenosylmethionine (1 μM). 100% hydrogen gas was maintained in the head space of the reactor at 1 atm and the reaction also included 1 mM NADH, 20 mM TRIS pH 7.9, and 1% glycerol.
# This experiment was performed in a 50 mL reactor with 20 mL liquid volume and the remaining headspace under 1 atm of oxygen-free hydrogen gas. Experimental conditions were as follows 20 mM Tris pH 7.9, 10% (v/v) 1,2-propanediol, 1% (v/v) glycerol 50 μM purified RiDD, 100 μM purified DhaT, 100 μM NAD+, and 100 μM purified H2ase. After a brief pre-incubation (20 min) period to insure strictly anaerobic conditions were achieved (less than 1 ppm O2), purified RiDD-AE in the reduced (formally [4Fe-4S]′) form was added to a final concentration of 50 μM to initiate the reaction. […]
# [2] = system: C[C@H](O)CO; assay: purified protein, by the assay type
# [3] = system: OCC(O)CO; assay: purified protein, by the assay type
# [4] = substrate: C[C@@H](O)CO; assay: Coupled enzyme assay for the RiDD (NADH-dependent reduction of propionaldehyde by YADH); type: biochemical, Roseburia inulinivorans; details: other: substrate of RiDD; Michaelis-Menten fit, FIG. 7
# From the text: (§1) FIG. 5A depicts a chemical pathway describing how the conversion of glycerol, by an activated glycerol dehydratase can be easily monitored using purified DhaT and following the NADH-dependent reduction of 3-hydroxypropionaldehyde to 1,3-propanediol. Similarly, FIG. 5B depicts a chemical pathway for how the conversion of 1,2-propanediol, by an activated diol-dehydratase can be monitored by following the NADH-dependent reduction of propionaldehyde by YADH.
# (§2) A coupled enzyme assay for the CbGD and the RiDD was performed as previously described^5 with minor modifications. Where indicated, varying amounts of the substrate (specifically, glycerol, R-1,2-propanediol, or S-1,2-propanediol) were added from pure stock solutions purchased through Sigma Chemical Company™ in some cases the stocks were diluted with ddH2O in order to allow for accurate measurement of the substrate at the lower concentrations. In addition, when glycerol was used as the substrate for the CbGD, the enzyme YqhD was included in the assay in place of yeast alcohol dehydrogenase (YADH) and […]. YqhD is an aldehyde reductase capable of the NADPH-dependent reduction of several aldehydes, including 3-hydroxypropionaldehyde and was overexpressed and purified from E. coli as previously described^9.
# [5] = substrate: C[C@H](O)CO; assay: as above; type: biochemical, Roseburia inulinivorans; details: other: substrate of RiDD; Michaelis-Menten fit, FIG. 7
# From the text: as §1, §2
molecule,measurement,setting,value
"CC(O)CO (racemic) [1,2-propanediol, propane-1,2-diol]","propanol titer from conversion of 1,2-propanediol","[1]; after 6 hours, 1% glycerol",~14 g/L
"OCC(O)CO [glycerol, propane-1,2,3-triol]",concentration of glycerol over the reaction,"[1]; 1% (v/v) glycerol, FIG. 2",remained unchanged
C. butyricum glycerol dehydratase (CbGD) (Clostridium butyricum),Km,[2],800 µM
same,Km,[3],200 µM
B12-independent diol dehydratase from R. inulinivorans (RiDD) (Roseburia inulinivorans) (protein) MGNYDSTPIAKSDRIKRLVDHLYAKMPEIEAARAELITESFKATEGQPVVMRKARAFEHILKNLPIIIRPEELIVGSTTIAPRGCQTYPEFSYEWLEAEFETVETRSADPFYISEETKKRLLAADAYWKGKTTSELATSYMAPETLRAMKHNFFTPGNYFYNGVGHVTVQYETVLAIGLNGVKEKVRKEMENCHFGDADYSTKMCFLESILISCDAVITYANRYAKMAEEMAEKETDAARRQELLTIARVCKNVPEFPAESFQEACQSFWFIQQVLQIESSGHSISPGRFDQYMYPYYEKDLKEGSLTREYAQELIDCIWVKLNDLNKCRDAASAEGFAGYSLFQNLIVGGQTVQGRDATNDLSFMCITASEHVFLPMPSLSIRVWHGSSKALLMRAAELTRTGIGLPAYYNDEVIIPALVHRGATMDEARNYNIIGCVEPQVPGKTDGWHDAAFFNMCRPLEMVFSNGYDNGEIASIQTGNVESFQSFDEFMEAYRKQMLYNIELMVNADNAIDYAHAKLAPLPFESCLVDDCIKRGMSAQEGGAIYNFTGPQGFGIANVADSLYTIKKLVFEEKRITMGELKKALEMNYGKGLDATTAGDIAMQVAKGLKDAGQEVGPDVIANTIRQVLEMELPEDVRKRYEEIHEMILELPKYGNDIDEVDELAREAAYFYTRPLETFKNPRGGMYQAGLYPVSANVPLGAQTGATPDGRLAHTPVADGVGPTSGFDISGPTASCNSVAKLDHAIASNGTLFNMKMHPTAMAGEKGLESFISLIRGYFDQQGMHMQFNVVDRATLLDAQAHPEKYSGLIVRVAGYSALFTTLSKSLQDDIIKRTEQADNR,Km,[4],800 µM
same,Km,[5],500 µM
